Legend:
[1] = molecular target: T1, CD3-ε, full length, GFP2-fused (human, UniProt P07766); experiment: cryo-EM structure; subunits co-expressed in CHO-S and purified as one complex in detergent; tenfold molar excess of UCHT1 Fab added before a final SEC in 10 mM HEPES pH 7.4, 150 mM NaCl, 0.02% GDN; 3.01 Å consensus map and 3.39 Å TM-focused map; details: both partners purified
T1 construct: CD3-ε, full length; source: CHO-S, lentiviral transduction, co-expressed with the other subunits; purified as the complex from LMNG-solubilised membranes (Strep-Tactin XT, SEC in GDN)
T1 sequence (P07766 23-207): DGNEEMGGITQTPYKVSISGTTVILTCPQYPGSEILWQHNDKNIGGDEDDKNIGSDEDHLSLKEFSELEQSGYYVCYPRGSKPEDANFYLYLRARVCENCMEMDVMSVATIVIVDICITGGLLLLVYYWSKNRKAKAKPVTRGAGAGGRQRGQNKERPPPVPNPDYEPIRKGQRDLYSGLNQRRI

CD3ε on Jurkat T cells = molecular target: T2, CD3ε on Jurkat T cells (human (endogenous in Jurkat), UniProt P07766); experiment: flow cytometry on cells; cells pre-incubated with increasing concentrations of UCHT1 Fab, then stained with fluorescent UCHT1 antibody; details: one partner purified
T2 construct: CD3-ε as part of the TCR–CD3 complex at the cell surface; source: endogenous, on Jurkat T cells (TCR transductants)
T2 sequence (P07766 23-207): as above

B1: Fab fragment of the anti-human CD3ε murine antibody UCHT1 (Fab, V domains shown)
VH: EVQLQQSGPELVKPGASMKISCKASGYSFTGYTMNWVKQSHGKNLEWMGLINPYKGVSTYNQKFKDKATLTVDKSSSTAYMELLSLTSEDSAVYYCARSGYYGDSDWYFDVWGQGTTLTVFS
VL: DIQMTQTTSSLSASLGDRVTISCRASQDIRNYLNWYQQKPDGTVKLLIYYTSRLHSGVPSKFSGSGSGTDYSLTISNLEQEDIATYFCQQGNTLPWTFAGGTKLEIK
notes: VH domain of UCHT1; C-γ1 domain of murine IgG1, residues 1-103 of P01868-1; Vκ domain of UCHT1; murine constant kappa domain; Both chains were expressed under a modified cPTPRσ signal peptide ([residues removed], last two residues changed for a KpnI site); also called UCHT1 Fab; source: CHO-K1, lentiviral transduction, purified from culture supernatant (CaptureSelect C-tagXL, Superdex 200)
binding result [1]: binds | binding result (CD3ε on Jurkat T cells): binds

Source: paper PMC11485255, “Structure of a fully assembled γδ T cell antigen receptor” (Nature, 2024)
